System: Escherichia coli TOP10
Test: shrunken log2 fold change of peptide-encoding DNA abundance (4.5 h post-induction vs induction); higher = less antimicrobial activity (less host growth inhibition)
Conditions: time post-induction: 4.5 h; library: site-saturation at positions 5, 18, 19, 20
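Further: peptides expressed intracellularly from a pBAD plasmid library in pooled LB shake-flask culture, induced with 0.3% L-arabinose, DNA abundance read by NGS, three biological replicates, DESeq2 with apeglm shrinkage.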

Sequence	shrunken log2 fold change
RRIRSRPPRLPRPRPRPGGCPRP	0.304
RRIRWRPPRLPRPRPRPRTVPRP	0.0512
RRIRLRPPRLPRPRPRPNNCPRP	-0.207
RRIRIRPPRLPRPRPRPMFDPRP	-0.0483
RRIRGRPPRLPRPRPRPKFKPRP	0.383
RRIRNRPPRLPRPRPRPSLVPRP	-0.292
RRIRCRPPRLPRPRPRPMFSPRP	-0.48
RRIRMRPPRLPRPRPRPNKYPRP	-0.148
RRIRGRPPRLPRPRPRPTLLPRP	0.884
RRIRHRPPRLPRPRPRPPCCPRP	-0.0551
RRIRGRPPRLPRPRPRPIMNPRP	0.237
RRIRTRPPRLPRPRPRPLGHPRP	-0.459
RRIRLRPPRLPRPRPRPMRQPRP	0.181
RRIRFRPPRLPRPRPRPWTLPRP	-0.259
RRIRHRPPRLPRPRPRPYVMPRP	0.0288
RRIRERPPRLPRPRPRPCSPPRP	-0.286
RRIRRRPPRLPRPRPRPHMGPRP	-0.15
RRIRARPPRLPRPRPRPIFSPRP	-0.00994
RRIRSRPPRLPRPRPRPNLNPRP	-0.307
RRIRFRPPRLPRPRPRPFYEPRP	-0.886
RRIRNRPPRLPRPRPRPIRHPRP	-0.0817
RRIRLRPPRLPRPRPRPFLPPRP	-0.171

Sequence	shrunken log2 fold change
RRIRIRPPRLPRPRPRPYCEPRP	-0.21
RRIRDRPPRLPRPRPRPHERPRP	0.0603
RRIRLRPPRLPRPRPRPTDVPRP	-0.524
RRIRQRPPRLPRPRPRPSVCPRP	-0.14
RRIRARPPRLPRPRPRPCKAPRP	0.125
RRIRCRPPRLPRPRPRPSILPRP	-0.739
RRIRYRPPRLPRPRPRPVHDPRP	-0.372
RRIRCRPPRLPRPRPRPECGPRP	0.436
RRIRKRPPRLPRPRPRPQVTPRP	-0.0535
RRIRARPPRLPRPRPRPLHRPRP	0.281
RRIRWRPPRLPRPRPRPNWDPRP	-0.0442
RRIRFRPPRLPRPRPRPWPCPRP	-0.229
RRIRMRPPRLPRPRPRPLFSPRP	0.0255
RRIRPRPPRLPRPRPRPHEQPRP	0.0602
RRIRFRPPRLPRPRPRPLKNPRP	-0.193
RRIRKRPPRLPRPRPRPALTPRP	0.622
RRIRDRPPRLPRPRPRPDGNPRP	-0.00172
RRIRMRPPRLPRPRPRPCPQPRP	0.0219
RRIRSRPPRLPRPRPRPYINPRP	-0.879
RRIRARPPRLPRPRPRPELGPRP	1.43
RRIRARPPRLPRPRPRPLQDPRP	0.25
RRIRQRPPRLPRPRPRPCHIPRP	-0.0316

Sequence	shrunken log2 fold change
RRIRARPPRLPRPRPRPKDAPRP	0.347
RRIRMRPPRLPRPRPRPVGGPRP	0.961
RRIRIRPPRLPRPRPRPEEKPRP	0.461
RRIRHRPPRLPRPRPRPTSQPRP	-0.00232
RRIRYRPPRLPRPRPRPSPKPRP	-0.105
RRIRSRPPRLPRPRPRPHYVPRP	-0.488
RRIRLRPPRLPRPRPRPSLMPRP	0.126
RRIRRRPPRLPRPRPRPMMHPRP	0.101
RRIRFRPPRLPRPRPRPVYLPRP	-0.721
RRIRNRPPRLPRPRPRPKSNPRP	-0.294
RRIRSRPPRLPRPRPRPCSKPRP	-0.234
RRIRMRPPRLPRPRPRPFMWPRP	-0.128
RRIRARPPRLPRPRPRPTLCPRP	0.392
RRIRDRPPRLPRPRPRPDEHPRP	0.0279
RRIRGRPPRLPRPRPRPEFPPRP	0.482
RRIRARPPRLPRPRPRPERYPRP	0.0113
RRIRMRPPRLPRPRPRPCYIPRP	-0.133
RRIRGRPPRLPRPRPRPMLKPRP	0.575
RRIRDRPPRLPRPRPRPDLPPRP	0.337
RRIRRRPPRLPRPRPRPEFFPRP	0.216
RRIRVRPPRLPRPRPRPVSRPRP	0.37
RRIRMRPPRLPRPRPRPLRHPRP	1.98

Sequence	shrunken log2 fold change
RRIRTRPPRLPRPRPRPVTHPRP	-0.0683
RRIRDRPPRLPRPRPRPGCDPRP	0.79
RRIRRRPPRLPRPRPRPWLMPRP	-0.185
RRIRRRPPRLPRPRPRPCFAPRP	0.442
RRIRERPPRLPRPRPRPTRYPRP	-0.154
RRIRFRPPRLPRPRPRPWPGPRP	0.112
RRIRPRPPRLPRPRPRPWWPPRP	0.165
RRIRFRPPRLPRPRPRPHIYPRP	-1.22
RRIRLRPPRLPRPRPRPFVAPRP	-0.0302
RRIRVRPPRLPRPRPRPNRCPRP	-0.364
RRIRDRPPRLPRPRPRPTHWPRP	0.192
RRIRQRPPRLPRPRPRPPNMPRP	-0.089
RRIRFRPPRLPRPRPRPTNLPRP	-0.291
RRIRCRPPRLPRPRPRPDREPRP	0.0186
RRIRLRPPRLPRPRPRPSSDPRP	0.128
RRIRERPPRLPRPRPRPMNSPRP	-0.0427
RRIRHRPPRLPRPRPRPMYNPRP	-0.833
RRIRWRPPRLPRPRPRPAFLPRP	-0.0114
RRIRMRPPRLPRPRPRPGVFPRP	0.858
RRIRYRPPRLPRPRPRPKTLPRP	-0.459
RRIRERPPRLPRPRPRPLYAPRP	-0.101
RRIRVRPPRLPRPRPRPERLPRP	-0.0657

Sequence	shrunken log2 fold change
RRIRDRPPRLPRPRPRPCTPPRP	-0.153
RRIRRRPPRLPRPRPRPLMTPRP	0.351
RRIRHRPPRLPRPRPRPLSIPRP	-0.326
RRIRSRPPRLPRPRPRPVEAPRP	-0.0651
RRIRLRPPRLPRPRPRPKGTPRP	0.0017
RRIRLRPPRLPRPRPRPRGCPRP	0.246
RRIRSRPPRLPRPRPRPACGPRP	0.436
RRIRERPPRLPRPRPRPQFRPRP	-0.00151
RRIRRRPPRLPRPRPRPSACPRP	0.195
RRIRDRPPRLPRPRPRPMCMPRP	0.0237
RRIRLRPPRLPRPRPRPNWEPRP	-0.111
RRIRYRPPRLPRPRPRPPDIPRP	-0.157
RRIRARPPRLPRPRPRPVLSPRP	0.26
RRIRNRPPRLPRPRPRPDFPPRP	-0.0345
RRIRPRPPRLPRPRPRPLRIPRP	0.0628
RRIRPRPPRLPRPRPRPRKDPRP	0.173
RRIRTRPPRLPRPRPRPCSQPRP	-0.018
RRIRNRPPRLPRPRPRPASHPRP	0.0783
RRIRCRPPRLPRPRPRPRCAPRP	0.346
RRIRQRPPRLPRPRPRPCFIPRP	-0.353
RRIRGRPPRLPRPRPRPQGWPRP	1.04

— the supplement of paper PMC9112550, “Optimization of the antimicrobial peptide Bac7 by deep mutational scanning” (BMC Biology, 2022)
